Where two headings read alike, the source gives them in different places.

Assay [1] has as its target T1, LAG3 D1 domain extra loop peptide (biotin labelled (site not stated)).
T1 peptide: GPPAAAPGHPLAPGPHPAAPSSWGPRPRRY
In words: ELISA format I: biotin labelled LAG3 D1 domain extra loop peptide on plate coated antibody; axis printed as Ab Conc. (nM). The procedure: (§1) In ELISA binding assay of format I (FIG. 9A), biotin labelled LAG3 D1 domain extra loop peptide was incubated with ELISA microplate coated anti-LAG3 antibodies. After washing, HRP labeled anti-SA 2nd antibody (Sigma) was added and incubated at 37° C. for 1 hour. Then, 100 μl/well of TMB solution (Biotechnology) was added. After incubation for 15 minutes at room temperature, the reaction was stopped by the addition of 50 μl of 1N HCl. OD 450 nm was read. In ELISA binding assay of format II (FIG. 9B), biotin labelled LAG3 D1 domain extra loop peptide and anti-LAG3 antibodies were co-incubated in ELISA microplate coated with SA. After washing, HRP labeled anti-human Fc 2nd antibody (Sigma) was added and incubated at 37° C. for 1 hour. Then, 100 μl/well of TMB solution (Biotechnology) was added. After incubation for 15 minutes at room temperature, the reaction was stopped by the addition of 50 μl of 1N HCl. OD 450 nm was read.

In assay [2] the target is T1, LAG3 D1 domain extra loop peptide. In words: ELISA format II: biotin labelled LAG3 D1 domain extra loop peptide and antibody co-incubated on streptavidin coated plate, anti-human Fc detection. The procedure: as §1
A general note: An ELISA detects its analyte on a solid surface through an enzyme-linked reagent.

Assay [3] has as its target T2, human LAG3 (form used in Octet, Biacore and HDX-MS not given) (human, UniProt P18627 23-450, limits assumed).
T2 sequence (looked up): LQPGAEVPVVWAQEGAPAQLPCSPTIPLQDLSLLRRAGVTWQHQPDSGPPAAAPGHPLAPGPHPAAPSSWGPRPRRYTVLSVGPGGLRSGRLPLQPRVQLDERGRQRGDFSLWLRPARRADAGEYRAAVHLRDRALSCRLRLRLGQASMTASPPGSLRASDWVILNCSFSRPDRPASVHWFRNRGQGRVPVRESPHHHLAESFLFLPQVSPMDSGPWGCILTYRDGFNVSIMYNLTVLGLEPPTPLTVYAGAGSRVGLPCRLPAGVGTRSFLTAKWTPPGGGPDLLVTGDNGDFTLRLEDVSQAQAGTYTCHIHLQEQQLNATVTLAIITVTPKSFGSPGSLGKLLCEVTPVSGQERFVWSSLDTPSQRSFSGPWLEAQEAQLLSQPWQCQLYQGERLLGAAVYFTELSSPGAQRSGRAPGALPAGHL
In words: BLI (Octet), 1:1 fit. The procedure:
The purified chimeric antibodies were characterized for binding affinity against human LAG3 using Bio-Layer Interferometry technology (Octet system). The association and dissociation curves were fit with 1:1 binding model, and the Ka/Kd/KD values for each antibody were calculated.
Background: In BLI a coated tip is dipped into the sample, and binding shifts an interference pattern.

The target in assay [4] is T2, human LAG3 (form used in Octet, Biacore …). In words: BLI (Octet), 1:1 fit. The procedure:
(§2) The association and dissociation curves were fit with 1:1 binding model, and the Ka/Kd/KD values for each antibody were calculated.
as §2
This is another data set of the same source.

The target in assay [5] is T3, human LAG3, full length, stably expressed on cells (human, UniProt P18627 23-525).
T3 construct: whole, on cells; also called CHOK1-human LAG3
T3 sequence (looked up): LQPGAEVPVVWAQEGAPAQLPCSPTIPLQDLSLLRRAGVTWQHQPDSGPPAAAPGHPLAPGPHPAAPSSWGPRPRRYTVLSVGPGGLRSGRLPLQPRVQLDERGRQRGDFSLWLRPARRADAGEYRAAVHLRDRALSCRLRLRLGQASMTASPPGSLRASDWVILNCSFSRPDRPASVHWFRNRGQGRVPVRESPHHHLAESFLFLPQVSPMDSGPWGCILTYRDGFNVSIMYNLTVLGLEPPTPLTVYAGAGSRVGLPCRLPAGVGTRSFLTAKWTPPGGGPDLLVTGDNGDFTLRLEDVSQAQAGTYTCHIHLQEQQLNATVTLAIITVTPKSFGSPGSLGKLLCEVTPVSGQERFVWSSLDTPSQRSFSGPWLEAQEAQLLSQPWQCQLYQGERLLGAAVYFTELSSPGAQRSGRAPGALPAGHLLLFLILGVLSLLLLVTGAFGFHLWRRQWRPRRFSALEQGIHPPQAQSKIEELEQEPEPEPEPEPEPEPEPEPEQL
In words: FACS on 293F cells stably expressing human LAG3. The procedure:
Briefly the antibodies were incubated with 2×10⁵ target cells at 4° C. for 1 hour. After washing, fluorescence labeled anti-mouse IgG 2nd antibody (Life Technologies) was added and incubated at 4° C. for 1 hour. Geometric median fluorescence intensity (MFI) was detected and EC₅₀ was calculated using GraphPad Prism9.0.
(§3) MFI was detected and EC₅₀ was calculated using GraphPad Prism9.0.

Assay [6] addresses T4, mFc tagged human LAG3 ECD recombinant protein (human, UniProt P18627 23-450).
T4 construct: extracellular domain; purchased from Biointron; not shown: mouse IgG Fc (mFc) tag
T4 sequence (looked up): T2 sequence (looked up)
In words: competitive FACS: mFc-LAG3 ECD binding to Raji cells (MHC II). The procedure: (§4) Activity of the purified chimeric antibodies to block LAG3 and MHC II interaction was determined by competitive FACS assay. […] After washing, dye labeled anti-mouse Fc 2nd antibody (Sigma) was added and incubated at 37° C. for 1 hour. Fluorescence intensity was detected.

The target in assay [7] is T5, human LAG3 ECD recombinant protein (plate coated, tag not stated) (human, UniProt P18627 23-450).
T5 construct: extracellular domain
T5 sequence (looked up): T2 sequence (looked up)
In words: competitive ELISA format I: His-FGL1 binding to coated LAG3 ECD.

Assay [8] deals with T6, hFc tagged human LAG3 ECD recombinant protein (human, UniProt P18627 23-450).
T6 construct: range 23-450; also called biotin labelled hFc tagged human LAG3 ECD; not shown: human IgG Fc tag
T6 sequence (looked up): T2 sequence (looked up)
In words: competitive ELISA format II: biotin hFc-LAG3 ECD binding to coated His-FGL1. The procedure: After washing, HRP labeled anti-His 2nd antibody (Sigma) was added and incubated at 37° C. for 1 hour. Then, 100 μl/well of TMB solution (Biotechnology) was added. After incubation for 15 minutes at room temperature, the reaction was stopped by the addition of 50 μl of 1N HCl. OD 450 nm was read. […] After washing, HRP labeled anti-SA 2nd antibody (Sigma) was added and incubated at 37° C. for 1 hour. Then, 100 μl/well of TMB solution (Biotechnology) was added. After incubation for 15 minutes at room temperature, the reaction was stopped by the addition of 50 μl of 1N HCl. OD 450 nm was read. […] The competition assay of format III is a competitive FACS assay. […] After washing, dye labeled anti-His 2nd antibody (Sigma) was added and incubated at 37° C. for 1 hour. Fluorescence intensity was detected.

Assay [9] addresses T4, mFc tagged human LAG3 ECD recombinant …. In words: competitive FACS: mFc tagged human LAG3 ECD binding to MHC II on Raji cells. The procedure:
as §4

For assay [10] the target is unchanged. The assay is described as above. The procedure: as §4
This is another data set of the same source.

Assay [11] shares this target. In words: competitive ELISA: mFc tagged human LAG3 ECD binding to plate coated LSECtin ECD. The procedure:
Activity of the purified chimeric antibodies to block LAG3 and LSECtin interaction was determined by competitive ELISA assay. […] After washing, HRP labeled anti-mouse Fc 2nd antibody (Sigma) was added and incubated at 37° C. for 1 hour. Then, 100 μl/well of TMB solution (Biotechnology) was added. After incubation for 15 minutes at room temperature, the reaction was stopped by the addition of 50 μl of 1N HCl. OD 450 nm was read.

Assay [12] deals with T3, human LAG3, full length, stably …. In words: FACS on CHOK1 cells stably expressing human LAG3. The procedure:
as §3

B1: BMS-986016 (antibody, V domains shown)
VH: QVQLQQWGAGLLKPSETLSLTCAVYGGSFSDYYWNWIRQPPGKGLEWIGEINHRGSTNSNPSLKSRVTLSLDTSKNQFSLKLRSVTAADTAVYYCAFGYSDYEYNWFDPWGQGTLVTVSS
VL: EIVLTQSPATLSLSPGERATLSCRASQSISSYLAWYQQKPGQAPRLLIYDASNRATGIPARFSGSGSGTDFTLTISSLEPEDFAVYYCQQRSNWPLTFGQGTNLEIK
For orientation: EC50 (read off the curve) means the concentration at which the effect is half-maximal. For the molecule B1, the “EC50 (read off the curve)” value in assay [1] was ~0.08 nM; in assay [2], ~0.2 nM.

B2: 029c (antibody, human IgG4, V domains shown)
VH: DVKLVESGEDLVKPGGSLKLSCAASGFTFSSYAMSWVRQTPEKRLEWVAYVTSGGDYIYYADTVKGRFTISRDDVRNTLYLQMSSLKSEDTAMYYCTRVAYDYEWYFDVWGTGAPVTVSS
VL: DIVMTQSHKFMSTSVGDRVSITCKASQDVTTAVAWYQQKPGQSPKLLIYSASYRYTGVSDRFTGSGSGTDFTFTISSVQAEDLALYYCQQHDSSPWTFGGGTKLEIK
notes: human IgG4 S228P / kappa chimeric antibody; also called chimeric antibody 029; not shown: human kappa light chain constant region (pcDNA3.4-hIgGk vector)
For orientation: Kd means the equilibrium constant for the complex coming apart. A lower Kd goes with a tighter complex. For orientation: koff means the first-order rate constant of dissociation. Higher therefore signals fast dissociation. As a reminder, the kon is the rate constant with which the complex forms. A word on the EC50: it is the concentration giving half of the maximal effect. Lower therefore signals a more potent agent. By IC50 is commonly meant the concentration needed to halve the response being measured. Take B2: in assay [3], binding was characterised by a dissociation constant (Kd) of 3.58 nM, the koff was found to be 0.00139 s⁻¹ and the kon turned out to be 389000 M⁻¹ s⁻¹. In assay [4], binding was put at a Kd of 7.7 nM, the off-rate constant (koff) is 0.0268 s⁻¹ and the kon stood at 3.48e+06 M⁻¹ s⁻¹. In addition, in assay [5], the response was half-maximal at 1.6 nM (EC50) and the “TOP MFI” value is 416. In assay [6], the IC50 amounted to 4.2 nM and the “TOP blocking (%)” value was found to be 96.4%. Further, the “Blocking ratio at 66.7 nM (%)” value in [7] was found to be 62.6%. Also, in assay [8], the IC50 is 2 nM and the “TOP blocking (%)” value was 84.5%. Also, in assay [9], the “%Blocking at 2 nM” value came to 9.7%, the “%Blocking at 4 nM” value was found to be 24.1% and the “%Blocking at 8 nM” value amounted to 84.3%. Further, in assay [10], the “%Blocking at 4 nM” value was 21.5% and the “%Blocking at 8 nM” value stood at 96.7%. Besides, in assay [11], the “%Blocking at 4 nM” value stood at 61.6%, the “%Blocking at 20 nM” value worked out at 92.7% and the “%Blocking at 100 nM” value was 97%. Further, the binding result in assay [1] is on record as “no binding (tested: about 300 nM)”.

B3: 021c (antibody, human IgG4, V domains shown)
VH: DIQLQESGPGLVKPSQSLSLTCSVTGYSITSGYYWNWIRQFPGNKLEWMGDISYDGGNNYNPSLKNRISITRDTSKNQFFLKLNSVTTEDTATYYCARDITLTGAMDYWGQGTSVTVSS
VL: DIVLTQSPASLAVSLGQRATISCRASESVDNYGISFMHWYQQRPGQPPKLLIYRASNLESGIPARFSGSGSRTDFTLTINPVETDDVATYYCQQSNKDPYTFGGGTKLEIK
notes: human IgG4 S228P / kappa chimeric antibody; also called chimeric antibody 021; not shown: human kappa light chain constant region (pcDNA3.4-hIgGk vector)
In [3], B3 came in with a dissociation constant Kd of 6.52 nM, an off-rate constant (koff) of 0.000905 s⁻¹ and an on-rate (kon) of 139000 M⁻¹ s⁻¹. Further, in assay [4], the affinity, expressed as Kd, was 5.34 nM; the off-rate constant (koff) was 0.00271 s⁻¹; the kon came out at 508000 M⁻¹ s⁻¹. The molecule further registered a half-maximal effective concentration (EC50) in [5] of 15.6 nM. Moreover, in assay [12], the EC50 was 1.6 nM and the “TOP MFI” value is 620. Moreover, in assay [6], the IC50 came to 4.2 nM and the “TOP blocking (%)” value turned out to be 99.9%. In [8], the IC50 was 1.93 nM and the “TOP blocking (%)” value worked out at 82%. In addition, in assay [9], the “%Blocking at 2 nM” value amounted to 13.7%, the “%Blocking at 4 nM” value stood at 20.1% and the “%Blocking at 8 nM” value stood at 76.8%. In addition, in assay [11], the “%Blocking at 4 nM” value is 27.4%, the “%Blocking at 20 nM” value is 91.4% and the “%Blocking at 100 nM” value was determined as 95.6%. Moreover, the binding result in assay [1] is “no binding (tested: about 300 nM)”.

The values above are taken from patent publication US20250313625A1 (ELPISCIENCE SUZHOU BIOPHARMA, published 2025).
